Results from the DeepSol protein solubility set.

Experiment: soluble on expression in E. coli; label from the status in PepcDB or PDB records

Row | Sequence | soluble on expression in E. coli
1 | MSLTVKDILDAIQSPDSTPADIAALPLPESYRAITVHKDETEMFAGLETRDKDPRKSIHLDDVPVPELGPGEALVAVMASSVNYNSVWTSIFEPLSTFGFLERYGRVSDLAKRHDLPYHVIGSDLAGVVLRTGPGVNAWQAGDEVVAHCLSVELESSDGHNDTMLDPEQRIWGFETNFGGLAEIALVKSNQLMPKPDHLSWEEAAAPGLVNSTAYRQLVSRNGAGMKQGDNVLIWGASGGLGSYATQFALAGGANPICVVSSPQKAEICRAMGAEAIIDRNAEGYRFWKDENTQDPKEWKRFGKRIRELTGGEDIDIVFEHPGRETFGASVFVTRKGGTITTCASTSGYMHEYDNRYLWMSLKRIIGSHFANYREAWEANRLIAKGRIHPTLSKVYSLEDTGQAAYDVHRNLHQGKVGVLCLAPEEGLGVRDREKRAQHLDAINRFRNEGHHHHHH | soluble
2 | MSNPEQHIQDLALEEVMGDRFGRYSKYIIQERALPDVRDGLKPVQRRILFAMNVEGNTAEKGFRKSAKTVGNVIGNYHPHGDSSVYEAMVRMSQDWKVRNMLIEMHGNNGSVDGDPPAAMRYTEARLSPISAELLRDIEKETVDFIPNFDDTSSEPTVLPARFPNLLVNGSTGISAGYATDIPPHNLTEIIEAVIKRLDNPLCTTDDIMKIVKGPDFPTGGIIQGIDGIRKAYQTGKGRVVVRSKTEIEDIRGGRKQITIHEIPYEVNKANLVKRMDELRIEKKIEGISEVRDETDRTGLRIAVELKKDANAEGVLNYLFKNTDLQVSYNFNMVAINKKRPELMGIIPMLDAYIEHQKEIITKRSEYDIRKARARQHILEGLIKALSILDEVIKLIRGSKDKRDAKLNLQTKYDFSEKQAEAIVSLQLYRLTNTDIHELQSEAKSLAEQISVLEKILGDEAELIAVLKEELAEIKKKYKTARRTEVQAEIAEIKIDTEVLVANEDVIVSVTKEGYVKRTSQRSYAASNGAELAMKEADHAIFIQKMNSLDSLLLFTSKGNFIYRPVHELPDIRWKNLGDHVSHLASDLSAGEEIRSAIAIQAFTEEKRFLFVTKNGMTKQSAITNYKPQRYSKSMMAIKLKGDDELLSVHLIDGTEDIFLATKNGYGLRYSITEIPESGARTAGVKAINLKQDDIVIGGIVLMPNEQKHILLATQRGSLKQMKASEFEPISRAKRGLLMLRELKSNPHRFIGITLADNNDHLFIETNTDQIVEIDVANLRITDRYSNGSFVLDETMEGEPTSIWLAIPEIKDTSDAKEE | not soluble
3 | MGNCLKSPTSDDISLLHESQSDRASFGEGTEPDQEPPPPYQEQVPVPVYHPTPSQTRLATQLTEEEQIRIAQRIGLIQHLPKGVYDPGRDGSEKKIRECVICMMDFVYGDPIRFLPCMHIYHLDCIDDWLMRSFTCPSCMEPVDAALLSSYETN | soluble
4 | MGSHHHHHHDITSLYKKAGSAAAVLEENLYFQGSFTMRLKELGEFGLIDLIKKTLESKVIGDDTAPVEYCSKKLLLTTDVLNEGVHFLRSYIPEAVGWKAISVNVSDVIANGGLPKWALISLNLPEDLEVSYVERFYIGVKRACEFYKCEVVGGNISKSEKIGISVFLVGETERFVGRDGARLGDSVFVSGTLGDSRAGLELLLMEKEEYEPFELALIQRHLRPTARIDYVKHIQKYANASMDISDGLVADANHLAQRSGVKIEILSEKLPLSNELKMYCEKYGKNPIEYALFGGEDYQLLFTHPKERWNPFLDMTEIGRVEEGEGVFVDGKKVEPKGWKHF | soluble
5 | RRTTNDGFHLLKAGGSCFALISGTANQVKCYRFRVKKNHRHRYENCTTTWFTVADNGAERQGQAQILITFGSPSQRQDFLKHVPLPPGMNISGFTASLDF | soluble
6 | MIFENRLALSAMAGVNNAEFCRKQKASLVILGGFNADRRALEAAEKAVKRGRKEFLFGIDGIEGEIKKLGRRKFAVNVRSSSLEGYLNVAELVAEFEGIIEINAHCRQPEFVEIGCGEWLLFNHERLVEIVSKTSRIAPTFVKIRGGHKLDYEKIARKLFDAGCLAIHVDAMIPGGGCDFSLIERISRIGNVIGNNSFVDIESGERIIMAGAKMASAARAVLRDENFFEKMLRSPLLSQPVELSCGRFRLEHHHHHH | soluble
7 | MKYFLPLDVSLASAYLKATMSFKDPPTLQQLARRSLLKDEALTISALLNLPVQLFPPLFKDAFTSRQRKILSLMVAAWPFPVLPVGALGGIDHLETLKAVLDGLDLLMSQKDRPRWNLQVLDLGNAHQDFWDGWAGLLHEVCSQDVFGKNQPVGNHPIPGGKQTITIKMNLSLKYCRHSKYLNYLHWWAEQRKDGIQVICEKLEFTGPHSSIQELAIKSIHWDIYNLALIASCLGQMKNLQKLILMNIRRPPDLADLQEAHIVTEIFSEFSKLHKVHYLHVNNVYFLKERLDQMLRCFERPLETLAITHCRLSELDMRYLSQCPSIHQLKYLDMSYTTFKPSSHRFLGSLLERLTATLQTLKLECFHLTDFQIRDLLPGLSQCSQLTEVDIAMNEFSVVSLKKLLKHTANLTQLTLEKYPAPVEVYDDGHSVISDRFVQLCSELMNTLKGVRQAKQVYFVSMPCLRNYEFLIYNLKGLDSSEQLRRRGLSWALINGEQVSRDSLQL | not soluble
8 | GSPEKILAQIIQEHREGLDWQEAATRASLSLEETRKLLQSMAAAGQVTLLRVENDLYAISTERYQAWWQAVTRALEEFHSRYPLRPGLAREELRSRYFSRLPARVYQALLEEWSREGRLQLAANTVALAGFTPSFSETQKKLLKDLEDKYRVSRWQPPWVKEVAGSFNLDPSELEELLHYLVREGVLVKINDEFYWHRQALGEAREVIKNLASTGPFGLAEARDALGSSRKYVLPLLEYLDQVKFTRRVGDKRVVVGN | soluble
9 | MKSAIPSLMVQGTTSDAGKSVLVAGLCRVLARKGINVAPFKPQNMALNSAVTKDGGEIGRAQAVQAQACNIEPTVHMNPVLIKPNSDTGAQIILQGKALSNMDAASFHDYKKVAMNTVLDSFSKLTKEFDSIMIEGAGSPAEINLREGDIANMGFAEAADVPVIIVADIDRGGVFAHLYGTLALLSESEQTRVKGFVINRFRGDIRLLQSGLDWLEEKTGKPVLGVLPYLHGLNLEAEDAITAQQELNSEVKLNVVVPVLTRISNHTDFDVLRLNPDINLSYVGKGEKI | not soluble
10 | MSWQQRVDDALTARRVTDTLRRRYVVSQGAGRWLVANGRQYLNFSSNDYLGLSQHPQIIRAWQQAATRFGVGSGGSGHISGYSVAHQALEEELAQWLGYPRALLFISGFAANQAVITALMKKNDRIVADRLSHASLLEAANLSPAQLRRFIHNDTQHLSRLLQSPCVGQQLVVTEGVYSMDGDSAPLAEIQHIARRHHAWLLVDDAHGIGVTGDEGRGTCWLRGVKPELLVVTFGKGFGVSGAAVLCSESVADYLLQFARHLVYSTSMPPAQAQALSASLAVIRSDEGGERREKLAALVQRFRAGVNASRFTLLNAHSAIQPLIVGDNSRALRLAEALRQQGCWATAIRPPTVPVGTARLRLTLTQAHEACDIDRLLEVLHGAGE | not soluble
11 | GMASIKGEVDEIANYGNLKITKEEERVNITGDLEKFSSLEEGTIVTRFNMNDTSIQSLIGLSDGNKANNYFSLYVSGGKVGYELRRQEGNGDFNVHHSADVTFNRGINTLALKIEKGIGAKIFLNGSLVKTVSDPNIKFLNAINLNSGFIGKTDRANGYNEYLFRGNIDFMNIYDKPVSDNYLLRKTGETK | soluble
12 | MSLLSYRHAFHAGNHADMLKHFTLFLVLQYFNRKDKPYWYIDTHGGAGVYNLEGSEAQKVGEYRQGIALLRQAQNLPAELSDFAAHIQKILPSPELYCGSPWLAQSLTRVGDKLRLFELHPTDFVHLQNNMGEAGLGKRGQVLREDGYKGLISLLPPPPRRAAVLIDPPYEEKQDYWRVTETLKSALKRFESGCYLIWYPCLSREESRKLPEELKKLVPDNYLHAELHVHAPKADGFGMHGSGMFVINPPYLLAEQLAANLPALTRLLAQDEGARYLLDSKEGHHHHHH | soluble
13 | MQAVSVDETKNTVVLRAEHKNEEGRKSVDKFEVKTRNPETIKSVERKLMEKGVQRMDRHPSDGIPLRRPPSKSGHGGKYTWEGPDRMEDYEMQPDPPAMDEGDPNYDEEQVKKSGDDVAVELVKGEVEVAKEAPAGVARVEVDPRLVGR | soluble
14 | MFSKKKDKFMVQLEEMVFNLDRAAIEFGKMDFNTHLDLKAYSDNIKTYESHGDELMHQVISDLNQTFITPIEREDILSLCNAIDDVLDAMEETSAMFEMYSIEYTDEYMAEFVENIQKAVAEMKLAVGLLVDKKLSHMRIHSINIKEFETNCDGILRQSMKHIFNSETDPITLIKIKDIYQSMEEIADKCQAVANNFETIIMKNSLEHHHHHH | soluble
15 | MSLSLSTIICIGMAGSGKTTFMQRLNSHLRAEKTPPYVINLDPAVLRVPYGANIDIRDSIKYKKVMENYQLGPNGAIVTSLNLFSTKIDQVIGLVEQKKDKFQNCIIDTPGQIECFVWSASGAIITESFASSFPTVIAYIVDTPRNSSPTTFMSNMLYACSILYKTKLPMIVVFNKTDVCKADFAKEWMTDFESFQAAIKEDQDLNGDNGLGSGYMSSLVNSMSLMLEEFYSQLDVVGVSSFTGDGFDEFMQCVDKKVDEYDQYYKQEREKALNLKKKKEEMRKQKSLNGLMKDLGLNEKSSAAASDNDSIDAISDLEEDANDGLVDRDEDEGVEREYTFPGEERTKGEVNENSAPDLQRRYQEAMQQVGKTASSETAENIAKYIRNEGHHHHHH | soluble
16 | MGSDKIHHHHHHMYSIVEGDRVLEIGFMEHFMFLDFPTLVDIPIGLPKKGERECDRLTRRILSKRAASVFTVPCRVAVYRESYEDALRVNRECQGKGFPVQFWHIVEKVREVDVFLRSYPDLSDQIRESHPELCFLRISSKMMKSKHTREGLNQRIEILREHLVFDVENLQRICREYRIHIHDVLDSLVLALAQQFPLERIPEDPPLDEHGLPMQIIAPARTQRSPNPE | not soluble
17 | MLLAYQSVIASITYLNPNIRFQLSRRCPSLKSAEKSAPLFINKLKLCTNSVVVNDISYEVDVYKTSEAVLLTYNTDLDVFGSIDFDLEIEEQNEILLDHRTYMAERMRLEREVLGLMTHSRNPNADLSRLMEINRLNKIRIQAREDRREVPNTPPEPPLVQVIEFAVMETDNYGDCLENEQLTYDRKLHDAVKYIMEKLFCGRKTPVHLSTLSINSFGILRIPLNMRFKIRHLKLVSGHANEIASKIRPIIEDSSFPLKSIIIKDPVEFDDPIYHSTQLLVLRHQLENRSPRFLNVKVLPNQLYVTTKILNWVQQARPVGTCWEFVGIDKNSKRQCVQKLMQIPGAMRALHTKLCWIILPANDDSEIHVTVAQDKINSKQFSIKLTVY | not soluble
18 | MGSDKIHHHHHHMQIVACYSNKGGVGKTATAVNLAYAFATSGRRTLLCDLDPQGASGFYFRVKPSKKLTEARFFEDVEHFTKSIRGSDYDNLDILPANMSFRDFDVFLSKMKDARSRLKKALKAVKGDYDIVLLDCPPNISILSENIFRAADAVVTPVIPTTLSQRTFEQLLEFFREHDLPMEKIHAFFSMIQGTKTLHGEMIVELTHNYPKRIMAAKIPFASEIERMGVVRAPVLATAPDSPAGKAYQALFDELLERIVP | not soluble
19 | GPGSMKVFHFHGTYRALGVRPKDFSLRAETVDGWRTPVLTSDWERHCDVEGIVTPALSSAGNAASALEPKGPVQVVVATFSLPPGSYATSVLREFCIRTTENGQGNDLETEDEYSSCADTMSHDGCQERRNGRRHHRPASRCIVTRSMRICSLCRSLSPLSLLLLTYVM | soluble
